In the RNAGym collection of RNA variant scans (doi:10.7554/elife.90254):

B1: OR4K15 (parent)
chain: GUUAACGGUCAUAGGCCAUGGAAACUAGGAGCACCAUUUCGCUGCCAGUGAAGAAAUGAACAAAGAAAAUCUGGGCCAGGCAGGCAUCAAAAGAAAUAGUCUUGCGCUCAACCAGAAAGUCUGUAAUCAUUUUAAGGGUA

Variants of: B1
Test: self-cleavage, relative activity (ratio to wild type); higher = more cleavage; in vitro, sequencing; the parent is a self-cleaving ribozyme

Variant | self-cleavage
GUUAACGGUCAUAGGCCAUGGAAGCUAGGAGCACCAUUUCGCUGCCAGUGAAGAAAUGAACAAAGAAAAUCUGGGCCAGGCAGGCAUCAAAAGAAAUAGUCUUGCGCUCAACCAGAAAGUCUGUAAUCAUUUUAAGGGUU | 0.89
GUUAACGGUCAUAGGCCAUGGAAGCUAGGAGCACCAUUUCGCUGCCAGUGAAGAAAUGAACAAAGAAAAUCUGGGCCAGGCAGGCAUCAAAAGAAAUAGUCUUGCGCUCAACCAGAAAGUCUGUAAUCAUUUUAAGGGUG | 1.4
GUUAACGGUCAUAGGCCAUGGAAGCUAGGAGCACCAUUUCGCUGCCAGUGAAGAAAUGAACAAAGAAAAUCUGGGCCAGGCAGGCAUCAAAAGAAAUAGUCUUGCGCUCCACCAGAAAGUCUGUAAUCAUUUUAAGGGUA | 0.55
GUUAACGGUCAUAGGCCAUGGAAGCUAGGAGCACCAUUUCGCUGCCAGUGAAGAAAUGAACAAAGAAAAUCUGGGCCAGGCAGGCAUCAAAAGAAAUAGUCUUGCGCUCGACCAGAAAGUCUGUAAUCAUUUUAAGGGUA | 0.17
GUUAACGGUCAUAGGCCAUGGAAGCUAGGAGCACCAUUUCGCUGCUAGUGAAGAAAUGAACAAAGAAAAUCUGGGCCAGGCAGGCAUCAAAAGAAAUAGUCUUGCGCUCAACCAGAAAGUCUGUAAUCAUUUUAAGGGUA | 0.73
GUUAACGGUCAUAGGCCAUGGAAGCUAGGAGCACCAUUUCGCUGCCAGUGAAGAAAUGAACAAAGAAAAUCUGGGCCAGGCAGGCAUCAAAAGGAAUAGUCUUGCGCUCAACCAGAAAGUCUGUAAUCAUUUUAAGGGUA | 1.47
GUUAACGGUCAUAGGCCAUGGAAGCUAGGAGCACCAUUUCGCUGCCAGUGAAGAAAUGAACAAAGAAAAUCUGGGCCAGGCAGGCAUCAAAAGAAAUAGUCUUGCGCUCAACCAGAAAGUCUGUAGUCAUUUUAAGGGUA | 0.83
GUUAACGGUCAUAGGCCAUGGAAGCUAGGAGCACCAUUUCGCUGCCAGUGAAGAAAUGAACAAAGAAAAUCUGGGCCAGGCAGGCAUCAAAAGAAAUAGUCUUGCGCUCAACCAGAAAGUCUGUAAUCAUUUUGAGGGUA | 0.94
GUUAACGGUCAUAGGCCAUGGAAGCUAGGAGCACCAUUUCGCUGCCAGUGAAGAAAUGAACAAAGAAAAUCUGGGCCAGGCAGGCAUCAAAAGAAAUAGUCUUGCGCUCAACCAGAAAGUCUGUAAUCGUUUUAAGGGUA | 1.15
GUUAACGGUCAUAGGCCAUGGAAGCUAGGAGCACCAUUUCGCUGCCAGUGAAGAAAUGAACAAAGAAAAUCUGGGCCAGGCAGGCAUCAAAAGAAGUAGUCUUGCGCUCAACCAGAAAGUCUGUAAUCAUUUUAAGGGUA | 1.2
GUUAACGGUCAUAGGCCAUGGAAGCUAGGAGCACCAUUUCGCUGCCAGUGAAGAAAUGAACAAAGAAAAUCUGGGCCAGGCAGGCAUCAAAAGAAAUCGUCUUGCGCUCAACCAGAAAGUCUGUAAUCAUUUUAAGGGUA | 1.76
GUUAACGGUCAUAGGCCAUGGAAGCUAGGAGCACCAUUUCGCUGCCAGUGAAGAAAUGAACAAAGAAAAUCUGGGCCAGGCAGGCAUCAAAAGAAAUAGUCUUGCGCUCAACCAGAAAGUCUGUCAUCAUUUUAAGGGUA | 0.4
GUUAACGGUCAUAGGCCAUGGAAGCUAGGAGCACCAUUUCGCUGCCAGUGAAGAAAUGAACAAAGAAAAUCUGGGCCAGGCAGGCAUCAAAAGAAAUAGUCUUGCGCUCAACCAGAAAGUCUGUAAUCAUUUUAUGGGUA | 1.33
GUUAACGGUCAUAGGCCAUGGAAGCUAGGAGCACCAUUUCGCUGCCAGUGAAGAAAUGAACAAAGAAAAUCUGGGCCAGGCAGGCAUCAAAAGAAAUAGUCUUGCGCUCAACCAGAAAGUCUGUAAUCAUUUUAGGGGUA | 1.67
GUUAACGGUCAUAGGCCAUGGAAGCUAGGAGCACCAUUUCGCUGCCAGUGAAGAAAUGAACAAAGAAAAUCUGGGCCAGGCAGGCAUCAAAAGAAAUAGUCUUGCGCUCAGCCAGAAAGUCUGUAAUCAUUUUAAGGGUA | 0.03
GUUAACGGUCAUAGGCCAUGGAAGCUAGGAGCACCAUUUCGCUGCCAGUGAAGAAAUGAACAAAGAAAAUCUGGGCCAGGCAGGCAUCAAAAGAAAUAGUCUUGCGCUCAACCCGAAAGUCUGUAAUCAUUUUAAGGGUA | 0.05
GUUAACGGUCAUAGGCCAUGGAAGCUAGGAGCACCAUUUCGCUGCCAGUGAAGAAAUGAACAAAGAAAAUCUGGGCCAGGCAGGCAUCAAAAGAAAUAGUCUUGCGCUCAACCGGAAAGUCUGUAAUCAUUUUAAGGGUA | 0.44
GUUAACGGUCAUAGGCCAUGGAAGCUAGGAGCACUAUUUCGCUGCCAGUGAAGAAAUGAACAAAGAAAAUCUGGGCCAGGCAGGCAUCAAAAGAAAUAGUCUUGCGCUCAACCAGAAAGUCUGUAAUCAUUUUAAGGGUA | 1.12
GUUAACGGUCAUAGGCCAUGGAAGCUAGGAGCACCAUUUCGCUGCCAGUGAAGAAAUGAACAAAGAAAAUCUGGGCCAGGCAGGCAUCAAAAGAAAUAGUCUUGCGCUCAACCAGUAAGUCUGUAAUCAUUUUAAGGGUA | 0.46
GUUAACGGUCAUAGGCCAUGGAAGCUAGGAGCACCAUUUCGCUGCCAGUGAAGAAAUGAACAAAGAAAAUCUGGGCCAGGCAGGCAUCAAAAGAGAUAGUCUUGCGCUCAACCAGAAAGUCUGUAAUCAUUUUAAGGGUA | 1.71
GUUAACGGUCAUAGGCCAUGGAAGCUAGGAGCAUCAUUUCGCUGCCAGUGAAGAAAUGAACAAAGAAAAUCUGGGCCAGGCAGGCAUCAAAAGAAAUAGUCUUGCGCUCAACCAGAAAGUCUGUAAUCAUUUUAAGGGUA | 1.69
